Source: patent US20050048527, “Endonuclease-substrate complexes” (Third Wave Technologies, Inc., published 2005)

Legend:
Assay in all cases: cleavage_in_vitro; rate vs Pfu FEN1
Pfu2M FEN1 = target: T1, Pfu2M FEN1 (Pyrococcus furiosus, UniProt O93634 SEQ:1-340)
T1 chain: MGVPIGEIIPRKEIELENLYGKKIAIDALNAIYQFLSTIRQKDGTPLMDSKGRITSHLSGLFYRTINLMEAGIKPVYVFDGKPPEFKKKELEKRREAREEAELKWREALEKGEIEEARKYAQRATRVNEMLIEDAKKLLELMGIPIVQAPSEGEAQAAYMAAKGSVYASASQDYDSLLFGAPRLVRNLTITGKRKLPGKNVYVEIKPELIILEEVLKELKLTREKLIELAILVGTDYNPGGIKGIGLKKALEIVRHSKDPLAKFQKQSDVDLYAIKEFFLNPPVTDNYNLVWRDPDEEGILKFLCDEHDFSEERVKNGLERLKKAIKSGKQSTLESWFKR
Procedure: (§1) For the evaluation of chimeric enzymes, standard tests were performed to measure the performance and specificity of the enzymes. […] 10 μl reactions are run at 59 C for between 5 to 60 minutes depending on the enzyme. Reactions are stopped by the addition of 10 μl of 95% formamide, 0.02% methyl violet. 1 μl of the mixture is run on a denaturing 20% acrylamide gel and electrophoresed for 15 minutes or until good separation is achieved between cleaved and uncleaved probe. The gels are scanned using an FMBIO fluorescent gel scanner and the bands are quantified with FMBIOAnalysis software. Cleavage rates are determined from the percent probe cleaved. Cleavage rate for the INVADER substrate is defined as the number of probe molecules cleaved per target molecule per minute. In Table 5, below, the cleavage rates for the mutant enzymes are compared to the cleavage rates for unmodified Pfu FEN1 enzyme on the INVADER assay and X-structure substrates.
(§2) The X-structure substrate is used to determine the amount of background cleavage an enzyme will carry out in an INVADER reaction. It mimics the structure created by uncut primary probe and secondary FRET cassette in the INVADER squared reaction. […] 10 μl reactions are run at 59 C for between 3 to 30 minutes depending on the enzyme. Reactions are stopped by the addition of 10 μl of 95% formamide, 0.02% methyl violet. 1 μl of the mixture is run on a denaturing 20% acrylamide gel and electophoresed for 15 minutes or until good separation is achieved between cleaved and uncleaved probe. The gels are scanned using an FMBIO fluorescent gel scanner and the bands are quantified with FMBIOAnalysis software. Cleavage rates are determined from the percent probe cleaved.

Mja FEN1 = target: T2, Mja FEN1 (Methanococcus jannaschii, UniProt Q58839 SEQ:1-326)
T2 sequence: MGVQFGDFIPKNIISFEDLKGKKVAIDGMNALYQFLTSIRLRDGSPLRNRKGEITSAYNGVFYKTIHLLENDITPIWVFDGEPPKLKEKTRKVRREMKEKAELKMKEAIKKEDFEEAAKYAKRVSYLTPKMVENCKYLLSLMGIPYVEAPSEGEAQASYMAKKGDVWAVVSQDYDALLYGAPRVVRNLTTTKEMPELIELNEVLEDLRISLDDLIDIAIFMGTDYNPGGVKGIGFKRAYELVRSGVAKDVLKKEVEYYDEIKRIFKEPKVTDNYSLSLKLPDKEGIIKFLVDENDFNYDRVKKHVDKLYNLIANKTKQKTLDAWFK
Procedure: as §1, §2

Pho4M FEN1 = target: T3, Pho4M FEN1 (Pyrococcus horikoshii, UniProt O50123 SEQ:1-343)
T3 chain: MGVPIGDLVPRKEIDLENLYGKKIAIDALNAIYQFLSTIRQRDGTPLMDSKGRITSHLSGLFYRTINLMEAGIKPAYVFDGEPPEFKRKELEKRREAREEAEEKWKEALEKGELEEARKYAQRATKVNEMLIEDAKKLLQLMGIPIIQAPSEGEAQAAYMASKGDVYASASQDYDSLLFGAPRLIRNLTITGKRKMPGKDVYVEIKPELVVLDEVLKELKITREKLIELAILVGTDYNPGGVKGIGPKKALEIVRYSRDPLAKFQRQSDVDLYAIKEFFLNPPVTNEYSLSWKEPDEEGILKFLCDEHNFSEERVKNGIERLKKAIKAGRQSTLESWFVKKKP
Procedure: as §1, §2

Pfu Y33A FEN1 = target: T4, Pfu Y33A FEN1 (Pyrococcus furiosus, UniProt O93634 SEQ:1-340, Y33A); details: label: 5'-biotin target; 5'-TET probe; hairpin target-INVADER with overlapping probe flap
T4 sequence: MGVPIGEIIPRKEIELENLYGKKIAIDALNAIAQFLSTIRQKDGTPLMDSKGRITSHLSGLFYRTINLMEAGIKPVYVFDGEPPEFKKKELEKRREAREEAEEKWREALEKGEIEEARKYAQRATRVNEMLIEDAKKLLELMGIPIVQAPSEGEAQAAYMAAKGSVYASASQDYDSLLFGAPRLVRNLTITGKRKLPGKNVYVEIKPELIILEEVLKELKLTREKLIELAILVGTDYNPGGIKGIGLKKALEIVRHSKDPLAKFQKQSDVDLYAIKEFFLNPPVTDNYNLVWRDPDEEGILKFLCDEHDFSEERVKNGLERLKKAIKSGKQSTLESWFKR
Procedure: as §1, §2

Pho1M FEN1 = target: T5, Pho1M FEN1 (Pyrococcus horikoshii, UniProt O50123 SEQ:1-343)
T5 chain: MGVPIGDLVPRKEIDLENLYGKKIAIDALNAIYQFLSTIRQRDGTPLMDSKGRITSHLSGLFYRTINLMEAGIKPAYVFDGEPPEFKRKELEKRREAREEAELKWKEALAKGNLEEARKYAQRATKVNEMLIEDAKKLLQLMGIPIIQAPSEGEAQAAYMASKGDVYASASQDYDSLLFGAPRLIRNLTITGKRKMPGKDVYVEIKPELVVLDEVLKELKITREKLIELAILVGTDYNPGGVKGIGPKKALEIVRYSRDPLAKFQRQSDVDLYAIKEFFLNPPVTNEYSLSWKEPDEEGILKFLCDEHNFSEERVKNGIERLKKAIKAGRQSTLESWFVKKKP
Procedure: as §1, §2

[1] = label: 5'-biotin target, 5'-TET probe, hairpin target-INVADER with overlapping probe flap

B1: INVADER substrate 594-12-1/203-91-1 (structured_DNA)
DNA 1: TTTTTCACGGCAGTTGGTGCGCCTCGGAACGAGGCGCACA
DNA 2: TTTTCAACTGCCGTGA
For B1, the cleavage rate (Pfu2M FEN1; [1]) was 1.4, the cleavage rate (Mja FEN1; [1]) was 1.9 and the cleavage rate (Pho4M FEN1; [1]) was 1.3. The cleavage rate (Pfu Y33A FEN1) was 0.05 and the cleavage rate (Pho1M FEN1; [1]) was 1.1.

B2: X-structure 203-81-2/203-91-2 (structured_DNA)
DNA 1: TTTTCAACTGCTTAGAGAATCTAAGCAGTTGGTGCGCCTCGTTAA
DNA 2: AACGAGGCGCACATT
modifications: 3'-NH2 on first strand
For B2, the cleavage rate (Pfu2M FEN1; label: 5'-TET, X-structure) was 3, the cleavage rate (Mja FEN1; label: 5'-TET, X-structure) was 203 and the cleavage rate (Pho4M FEN1; label: 5'-TET, X-structure) was 2.2. It also gave a cleavage rate (Pho1M FEN1; label: 5'-TET, X-structure) of 18.
